The record followed here is patent US9359408B2, “Fluorinated protein-based polymeric carriers” (New York University, priority 2007, dated 2016).

A short description of data set [1]: Microrheology of protein solutions (bead tracking, G′/G″). Format: physicochemical. As to the method:
Microrheology. To assess the mechanical properties of all proteins, microrheology was performed using an inverted Leica DM-138 IRB microscope with a 20× objective lens at 22 and 42° C., maintained by a Lincum temperature-controlled cell. […] A total of 2 μL of 2 wt % fluorescent-amidated polystyrene beads (1.0 μm) was added to 10 μL of protein solution. Deionized water, 2 wt % beads, was measured as a control. Brownian motion of the beads was observed by Peltier-cooled video camera (QiCam) and digitally recorded. Mean square displacement (MSD) measurements of the beads were determined by IDL software (Research Systems, Inc.). Using the comprehensive Stokes-Einstein equation, the elastic modulus (G′) and viscous modulus (G″) were determined as a function of angular frequency (ω).
Mechanical Properties. Bulk rheological properties of the protein polymers were evaluated by microrheology (FIG. 4).
Upon fluorination, more depressed concentration-dependent percolation points for the protein polymers were observed. […] Two types of modifications to the rheological behavior are observed from EC and CE sets of constructs.

Data set [2] can be described thus: Inverse temperature transition (Tt) by UV/vis absorbance at 350 nm. The note with it: 4 μM protein in 10 mM phosphate buffer, pH 8.0, heated 10 to 65° C. The data set is classed as physicochemical. As to the method: UV/Vis Spectroscopy. UV/vis spectroscopy was performed on a Cary 100 UV/vis spectrometer (Agilent) to determine the inverse temperature transition (Tt) of 4 μM protein in 10 mM phosphate buffer, pH 8.0. The absorbance at 350 nm was measured as each protein sample was heated from 10 to 65° C., at a heating rate of 0.5° C./min.
Temperature-Dependent Supramolecular Assembly. The effect of temperature on the supramolecular assembly of the proteins was examined via absorption at 350 nm. The inverse temperature transition (Tt) was determined via temperature-dependent absorption (FIG. 3, insets). The Tt values for all fluorinated block polymers were different, affirming the significance of block orientation and number. […] In comparison to the wt proteins, fluorination appeared to depress the Tt of CE protein from 36 to 28° C.

“Also recorded” adds a separate entry of the source.

B1: wt-CE: non-fluorinated COMPcc-Elastin block polymer (SEQ ID NO: 16) (protein)
chain: MRGSHHHHHHGSACELAATATATATATATAACGDLAPQMLRELQETNAALQDVRELLRQQVKEITFLKNTVMESDASGLQAATATATATATATAVDKPIAASAVPGVGVPGVGVPGFGVPGVGVPGVGVPGVGVPGVGVPGFGVPGVGVPGVGVPGVGVPGVGVPGFGVPGVGVPGVGVPGVGVPGVGVPGFGVPGVGVPGVGVPGVGVPGVGVPGFGVPGVGVPGVGVPLEGSGTGAKL
As to B1, the rheological character entry in data set [1] (1.25 mg mL^−1, 22° C.) is “viscous/viscoelastic”; in data set [1] (2.5 mg mL^−1, 22° C.), “viscous/viscoelastic”; in data set [1] (2.5 mg mL^−1, 42° C.), “viscoelastic character”; in data set [1] (up to 10 mg mL^−1), “predominantly viscous”. Also, the “inverse temperature transition (Tt)” value in data set [2] was found to be 36 °C.

B2: pFF-CE: COMPcc-Elastin diblock protein polymer with phenylalanine residues replaced by p-fluorophenylalanine (SEQ ID NO: 23) (protein)
chain: MRGSHHHHHHGSACELAATATATATATATAACGDLAPQMLRELQETNAALQDVRELLRQQVKEITFLKNTVMESDASGLQAATATATATATATAVDKPIAASAVPGVGVPGVGVPGFGVPGVGVPGVGVPGVGVPGVGVPGFGVPGVGVPGVGVPGVGVPGVGVPGFGVPGVGVPGVGVPGVGVPGVGVPGFGVPGVGVPGVGVPGVGVPGVGVPGFGVPGVGVPGVGVPLEGSGTGAKLN
modifications: Phe replaced by p-fluorophenylalanine
Take B2: the rheological character entry is “viscous/viscoelastic” in data set [1] (1.25 mg mL^−1, 22° C.); “viscous/viscoelastic” in data set [1] (2.5 mg mL^−1, 22° C.); “elastic behavior; also recorded: dominant elastic modulus” in data set [1] (2.5 mg mL^−1, 42° C.). Moreover, in data set [2], the “inverse temperature transition (Tt)” value was 28 °C.

B3: pFF-EC: Elastin-COMPcc diblock protein polymer with phenylalanine residues replaced by p-fluorophenylalanine (SEQ ID NO: 15) (protein)
chain: MRGSHHHHHHGSKPIAASAVPGVGVPGVGVPGFGVPGVGVPGVGVPGVGVPGVGVPGFGVPGVGVPGVGVPGVGVPGVGVPGFGVPGVGVPGVGVPGVGVPGVGVPGFGVPGVGVPGVGVPGVGVPGVGVPGFGVPGVGVPGVGVPLEGSELAATATATATATATAACGDLAPQMLRELQETNAALQDVRELLRQQVKEITFLKNTVMESDASGLQAATATATATATATAVDLQPS
modifications: Phe replaced by p-fluorophenylalanine
Consider B3, for which the rheological character result in data set [1] (1.25 mg mL^−1, 22° C.) is “viscoelastic behavior”; in data set [1] (2.5 mg mL^−1, 22° C.), “viscoelastic behavior”; in data set [1] (2.5 mg mL^−1, 42° C.), “more elastic character”. Besides, the “inverse temperature transition (Tt)” value in data set [2] worked out at 25 °C.

B4: wt-EC: non-fluorinated Elastin-COMPcc block polymer (SEQ ID NO: 15) (protein)
chain: B3 chain
Take B4: the rheological character entry is listed as “predominantly viscous” in data set [1] (1.25 mg mL^−1, 22° C.); “more elastic character” in data set [1] (2.5 mg mL^−1, 42° C.); “elastic network” in data set [1] (10 mg mL^−1); “predominantly viscous” in data set [1] (concentrations below 2.5 mg mL^−1).

B5: pFF-ECE: Elastin-COMPcc-Elastin triblock protein polymer with phenylalanine residues replaced by p-fluorophenylalanine (SEQ ID NO: 17) (protein)
chain: MRGSHHHHHHGSKPIAASAVPGVGVPGVGVPGFGVPGVGVPGVGVPGVGVPGVGVPGFGVPGVGVPGVGVPGVGVPGVGVPGFGVPGVGVPGVGVPGVGVPGVGVPGFGVPGVGVPGVGVPGVGVPGVGVPGFGVPGVGVPGVGVPLEGSELAATATATATATATAACGDLAPQMLRELQETNAALQDVRELLRQQVKEITFLKNTVMESDASGLQAATATATATATATAVDKPIAASAVPGVGVPGVGVPGFGVPGVGVPGVGVPGVGVPGVGVPGFGVPGVGVPGVGVPGVGVPGVGVPGFGVPGVGVPGVGVPGVGVPGVGVPGFGVPGVGVPGVGVPGVGVPGVGVPGFGVPGVGVPGVGVPLEGSGTGAKLN
modifications: Phe replaced by p-fluorophenylalanine
Turning to B5, the rheological character entry in data set [1] (1.25 mg mL^−1, 42° C.) is given as “elastic network formation”. Moreover, the “inverse temperature transition (Tt)” value in data set [2] was found to be 32 °C.

B6: wt-ECE: non-fluorinated Elastin-COMPcc-Elastin block polymer (SEQ ID NO: 17) (protein)
chain: B5 chain
With B6, the rheological character result in data set [1] (1.25 mg mL^−1, 42° C.) is “completely viscous”; in data set [1] (up to 10 mg mL^−1), “viscoelastic”.
